Experiments:
Test in all cases: BioID-MS +ONC201
HINT2 (human) = HINT2 (human) (UniProt Q9BX68)
PDK3 (human) = PDK3 (human) (UniProt Q15120)
SSBP1 (human) = SSBP1 (human) (UniProt Q04837)
NDUFS6 (human) = NDUFS6 (human) (UniProt O75380)
MRM3 (human) = MRM3 (human) (UniProt Q9HC36)
MRPL19 (human) = MRPL19 (human) (UniProt P49406)
IDI1 (human) = IDI1 (human) (UniProt Q13907)
SDHA (human) = SDHA (human) (UniProt P31040)
PYCR2 (human) = PYCR2 (human) (UniProt Q96C36)
GATB (human) = GATB (human) (UniProt O75879)
PCK2 (human) = PCK2 (human) (UniProt Q16822)
OGDH (human) = OGDH (human) (UniProt Q02218)
ZADH2 (human) = ZADH2 (human) (UniProt Q8N4Q0)
ABHD10 (human) = ABHD10 (human) (UniProt Q9NUJ1)
PIN1 (human) = PIN1 (human) (UniProt Q13526)
GFM1 (human) = GFM1 (human) (UniProt Q96RP9)
VWA8 (human) = VWA8 (human) (UniProt A3KMH1)
FOXRED1 (human) = FOXRED1 (human) (UniProt Q96CU9)
MRPL45 (human) = MRPL45 (human) (UniProt Q9BRJ2)
C12orf10 (human) = C12orf10 (human) (UniProt Q9HB07)
OXA1L (human) = OXA1L (human) (UniProt Q15070)
LETM1 (human) = LETM1 (human) (UniProt O95202)
GLRX5 (human) = GLRX5 (human) (UniProt Q86SX6)
PDE12 (human) = PDE12 (human) (UniProt Q6L8Q7)
PET112 (human) = PET112 (human) (UniProt O75879)
IARS2 (human) = IARS2 (human) (UniProt Q9NSE4)
ATPAF2 (human) = ATPAF2 (human) (UniProt Q8N5M1)
NME4 (human) = NME4 (human) (UniProt O00746)
MTHFD1L (human) = MTHFD1L (human) (UniProt Q6UB35)
MTRF1 (human) = MTRF1 (human) (UniProt O75570)
DCAKD (human) = DCAKD (human) (UniProt Q8WVC6)
ACAD10 (human) = ACAD10 (human) (UniProt Q6JQN1)
AIFM1 (human) = AIFM1 (human) (UniProt O95831)
HSDL2 (human) = HSDL2 (human) (UniProt Q6YN16)
MRPS17 (human) = MRPS17 (human) (UniProt Q9Y2R5)
EARS2 (human) = EARS2 (human) (UniProt Q5JPH6)
COQ6 (human) = COQ6 (human) (UniProt Q9Y2Z9)
MRPS26 (human) = MRPS26 (human) (UniProt Q9BYN8)
C7orf55 (human) = C7orf55 (human) (UniProt Q96HJ9)
NDUFA12 (human) = NDUFA12 (human) (UniProt Q9UI09)
AK3 (human) = AK3 (human) (UniProt Q9UIJ7)
COQ8A (human) = COQ8A (human) (UniProt Q8NI60)
MRPL10 (human) = MRPL10 (human) (UniProt Q7Z7H8)
HSD17B8 (human) = HSD17B8 (human) (UniProt Q92506)
PITRM1 (human) = PITRM1 (human) (UniProt Q5JRX3)
QRSL1 (human) = QRSL1 (human) (UniProt Q9H0R6)
BCKDHB (human) = BCKDHB (human) (UniProt P21953)
MRPS16 (human) = MRPS16 (human) (UniProt Q9Y3D3)
C8orf82 (human) = C8orf82 (human) (UniProt Q6P1X6)
MRPS28 (human) = MRPS28 (human) (UniProt Q9Y2Q9)
NFUl (human) = NFUl (human) (UniProt Q9UMS0)
Chain of NFUl (human) (Q9UMS0 10-254 limits assumed): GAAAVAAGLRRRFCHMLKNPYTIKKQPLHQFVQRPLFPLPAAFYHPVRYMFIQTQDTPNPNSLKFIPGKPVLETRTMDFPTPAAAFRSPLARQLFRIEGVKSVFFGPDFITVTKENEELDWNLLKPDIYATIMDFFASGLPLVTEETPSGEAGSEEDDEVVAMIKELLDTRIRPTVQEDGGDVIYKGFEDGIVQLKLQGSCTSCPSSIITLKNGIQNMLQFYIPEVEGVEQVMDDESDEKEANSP

Chain of PDK3 (human) (Q15120 whole entry): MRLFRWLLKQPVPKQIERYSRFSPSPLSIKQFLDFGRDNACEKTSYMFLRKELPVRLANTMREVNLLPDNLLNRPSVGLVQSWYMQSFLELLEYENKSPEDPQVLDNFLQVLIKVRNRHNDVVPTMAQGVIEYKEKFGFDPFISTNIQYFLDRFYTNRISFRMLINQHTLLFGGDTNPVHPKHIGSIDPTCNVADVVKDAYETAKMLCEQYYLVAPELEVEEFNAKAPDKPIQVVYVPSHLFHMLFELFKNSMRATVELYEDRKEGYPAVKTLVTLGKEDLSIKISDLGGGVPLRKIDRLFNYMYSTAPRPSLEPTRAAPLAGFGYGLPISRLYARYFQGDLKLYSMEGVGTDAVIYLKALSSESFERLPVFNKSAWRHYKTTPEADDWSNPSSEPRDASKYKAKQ
Chain of NME4 (human) (O00746 29-187 limits assumed): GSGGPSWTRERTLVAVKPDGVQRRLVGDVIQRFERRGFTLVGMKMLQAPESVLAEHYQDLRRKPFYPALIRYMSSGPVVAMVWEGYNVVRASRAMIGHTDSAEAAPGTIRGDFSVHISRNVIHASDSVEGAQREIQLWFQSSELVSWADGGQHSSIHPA
Chain of HSD17B8 (human) (Q92506 whole entry): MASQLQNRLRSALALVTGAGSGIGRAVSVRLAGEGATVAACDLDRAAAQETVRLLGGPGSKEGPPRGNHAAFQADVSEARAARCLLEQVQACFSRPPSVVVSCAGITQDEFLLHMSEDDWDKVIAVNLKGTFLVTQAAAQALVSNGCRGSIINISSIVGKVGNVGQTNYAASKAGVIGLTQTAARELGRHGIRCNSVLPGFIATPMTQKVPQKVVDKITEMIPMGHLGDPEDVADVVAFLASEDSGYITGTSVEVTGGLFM
Chain of SDHA (human) (P31040 43-664 limits assumed): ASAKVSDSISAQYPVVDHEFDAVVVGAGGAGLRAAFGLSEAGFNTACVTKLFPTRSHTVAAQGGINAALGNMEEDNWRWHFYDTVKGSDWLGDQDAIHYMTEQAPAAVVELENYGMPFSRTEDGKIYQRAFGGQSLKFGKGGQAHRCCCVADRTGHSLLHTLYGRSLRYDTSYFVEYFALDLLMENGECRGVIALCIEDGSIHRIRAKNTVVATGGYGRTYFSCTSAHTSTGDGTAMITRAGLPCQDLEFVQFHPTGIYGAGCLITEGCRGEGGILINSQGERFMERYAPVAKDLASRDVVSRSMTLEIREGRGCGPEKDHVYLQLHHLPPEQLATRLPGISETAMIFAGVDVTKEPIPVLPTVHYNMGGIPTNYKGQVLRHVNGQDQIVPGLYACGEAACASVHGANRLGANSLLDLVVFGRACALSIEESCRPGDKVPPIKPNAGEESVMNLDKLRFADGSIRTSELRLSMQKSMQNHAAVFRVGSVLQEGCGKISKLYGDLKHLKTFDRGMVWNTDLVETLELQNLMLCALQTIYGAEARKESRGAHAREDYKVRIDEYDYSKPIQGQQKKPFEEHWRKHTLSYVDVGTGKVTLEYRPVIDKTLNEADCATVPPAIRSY
Chain of IARS2 (human) (Q9NSE4 49-1012 limits assumed): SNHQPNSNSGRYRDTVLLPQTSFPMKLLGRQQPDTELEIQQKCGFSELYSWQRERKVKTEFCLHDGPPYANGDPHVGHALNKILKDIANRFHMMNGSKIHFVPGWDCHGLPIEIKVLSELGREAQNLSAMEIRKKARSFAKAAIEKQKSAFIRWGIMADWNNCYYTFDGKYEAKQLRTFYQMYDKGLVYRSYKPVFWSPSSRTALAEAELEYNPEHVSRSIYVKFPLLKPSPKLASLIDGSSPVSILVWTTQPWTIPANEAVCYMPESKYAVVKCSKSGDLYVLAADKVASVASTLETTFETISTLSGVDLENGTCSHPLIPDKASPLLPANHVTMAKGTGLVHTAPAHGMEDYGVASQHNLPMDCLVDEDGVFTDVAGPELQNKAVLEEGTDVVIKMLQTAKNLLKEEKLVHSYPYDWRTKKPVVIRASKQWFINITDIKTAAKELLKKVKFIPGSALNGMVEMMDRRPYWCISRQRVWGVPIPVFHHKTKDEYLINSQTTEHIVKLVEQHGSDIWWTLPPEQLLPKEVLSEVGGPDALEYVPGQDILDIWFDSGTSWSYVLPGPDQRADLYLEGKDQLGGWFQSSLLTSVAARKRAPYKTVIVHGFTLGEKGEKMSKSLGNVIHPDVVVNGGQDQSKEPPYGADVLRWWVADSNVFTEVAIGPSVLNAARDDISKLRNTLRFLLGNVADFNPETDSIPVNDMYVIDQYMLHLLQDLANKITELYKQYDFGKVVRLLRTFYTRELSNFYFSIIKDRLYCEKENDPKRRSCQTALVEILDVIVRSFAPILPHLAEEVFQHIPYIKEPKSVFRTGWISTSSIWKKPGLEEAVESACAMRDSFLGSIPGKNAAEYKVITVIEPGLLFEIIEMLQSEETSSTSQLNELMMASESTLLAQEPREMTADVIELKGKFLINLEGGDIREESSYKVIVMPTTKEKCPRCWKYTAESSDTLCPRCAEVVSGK
Chain of NDUFA12 (human) (Q9UI09 whole entry): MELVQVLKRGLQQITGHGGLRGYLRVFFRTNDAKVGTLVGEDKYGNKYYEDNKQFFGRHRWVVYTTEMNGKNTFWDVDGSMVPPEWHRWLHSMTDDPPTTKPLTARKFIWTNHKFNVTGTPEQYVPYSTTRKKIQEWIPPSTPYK
Chain of LETM1 (human) (O95202 116-739 limits assumed): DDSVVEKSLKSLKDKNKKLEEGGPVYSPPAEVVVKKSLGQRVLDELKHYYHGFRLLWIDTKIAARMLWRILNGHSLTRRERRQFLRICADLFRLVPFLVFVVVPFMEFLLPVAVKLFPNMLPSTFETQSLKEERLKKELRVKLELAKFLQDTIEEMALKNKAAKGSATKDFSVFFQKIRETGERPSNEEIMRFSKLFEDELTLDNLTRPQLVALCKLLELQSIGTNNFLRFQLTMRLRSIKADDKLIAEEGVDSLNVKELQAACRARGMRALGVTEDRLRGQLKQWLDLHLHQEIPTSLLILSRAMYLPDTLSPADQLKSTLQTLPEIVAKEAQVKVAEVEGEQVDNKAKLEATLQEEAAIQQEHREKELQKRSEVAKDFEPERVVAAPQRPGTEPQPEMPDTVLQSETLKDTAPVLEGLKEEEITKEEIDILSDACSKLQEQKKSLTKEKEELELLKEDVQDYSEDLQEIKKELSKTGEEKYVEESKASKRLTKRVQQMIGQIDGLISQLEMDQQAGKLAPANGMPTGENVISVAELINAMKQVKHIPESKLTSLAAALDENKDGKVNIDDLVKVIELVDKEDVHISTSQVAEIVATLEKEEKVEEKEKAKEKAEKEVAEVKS
Chain of AK3 (human) (Q9UIJ7 whole entry): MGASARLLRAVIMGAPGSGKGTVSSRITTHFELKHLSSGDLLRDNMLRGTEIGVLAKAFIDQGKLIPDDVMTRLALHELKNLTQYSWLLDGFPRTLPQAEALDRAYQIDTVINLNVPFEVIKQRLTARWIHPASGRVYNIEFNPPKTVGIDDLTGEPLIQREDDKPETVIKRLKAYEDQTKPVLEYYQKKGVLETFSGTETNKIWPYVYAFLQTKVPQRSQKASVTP
Chain of C8orf82 (human) (Q6P1X6 whole entry): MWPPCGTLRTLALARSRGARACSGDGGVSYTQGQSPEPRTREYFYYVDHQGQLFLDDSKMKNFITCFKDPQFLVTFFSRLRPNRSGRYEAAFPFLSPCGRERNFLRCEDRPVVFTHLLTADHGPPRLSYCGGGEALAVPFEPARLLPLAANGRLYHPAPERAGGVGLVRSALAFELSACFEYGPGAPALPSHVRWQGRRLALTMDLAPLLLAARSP
Chain of NDUFS6 (human) (O75380 29-124 limits assumed): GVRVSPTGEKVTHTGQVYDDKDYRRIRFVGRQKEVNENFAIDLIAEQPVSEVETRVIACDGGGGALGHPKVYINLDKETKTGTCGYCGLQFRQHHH
Chain of SSBP1 (human) (Q04837 17-148 limits assumed): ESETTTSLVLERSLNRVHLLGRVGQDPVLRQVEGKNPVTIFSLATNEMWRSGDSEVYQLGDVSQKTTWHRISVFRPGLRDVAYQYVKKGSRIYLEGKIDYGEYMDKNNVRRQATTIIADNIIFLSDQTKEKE
Chain of MRM3 (human) (Q9HC36 41-420 limits assumed): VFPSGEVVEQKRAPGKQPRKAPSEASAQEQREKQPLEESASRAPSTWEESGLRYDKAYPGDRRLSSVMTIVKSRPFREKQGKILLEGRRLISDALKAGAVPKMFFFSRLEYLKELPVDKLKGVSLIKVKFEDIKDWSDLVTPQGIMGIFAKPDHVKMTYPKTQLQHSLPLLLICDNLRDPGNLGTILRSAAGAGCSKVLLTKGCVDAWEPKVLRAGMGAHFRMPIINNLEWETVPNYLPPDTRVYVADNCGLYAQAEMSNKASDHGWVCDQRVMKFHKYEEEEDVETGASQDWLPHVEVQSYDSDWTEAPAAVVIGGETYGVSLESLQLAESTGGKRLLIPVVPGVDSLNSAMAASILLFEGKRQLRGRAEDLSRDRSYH
Chain of C12orf10 (human) (Q9HB07 48-376 limits assumed): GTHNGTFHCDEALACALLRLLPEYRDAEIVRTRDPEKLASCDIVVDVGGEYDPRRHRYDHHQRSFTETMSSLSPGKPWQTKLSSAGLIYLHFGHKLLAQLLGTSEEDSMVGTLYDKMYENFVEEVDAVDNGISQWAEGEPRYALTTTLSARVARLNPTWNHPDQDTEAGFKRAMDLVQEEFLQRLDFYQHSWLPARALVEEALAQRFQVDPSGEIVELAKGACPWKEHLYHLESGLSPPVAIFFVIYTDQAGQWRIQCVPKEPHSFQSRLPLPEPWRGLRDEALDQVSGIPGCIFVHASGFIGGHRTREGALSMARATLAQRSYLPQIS

Work on “FlagBirA-ClpP (WT) (from UniProt P06709 1-321; Q16740 57-277) (enzyme)” yielded a Log2 Fold change (vs control) (HINT2 (human)) of -1.17 log2, a Log2 Fold change (vs control) (PDK3 (human)) of -1.55 log2 and a Log2 Fold change (vs control) (SSBP1 (human)) of 0.07 log2. The Log2 Fold change (vs control) (NDUFS6 (human)) was -6.32 log2, the Log2 Fold change (vs control) (MRM3 (human)) was -1.62 log2 and the Log2 Fold change (vs control) (MRPL19 (human)) was -3.51 log2. It also gave a Log2 Fold change (vs control) (IDI1 (human)) of -0.22 log2, a Log2 Fold change (vs control) (SDHA (human)) of -0.94 log2 and a Log2 Fold change (vs control) (PYCR2 (human)) of -0.21 log2. It also gave a Log2 Fold change (vs control) (GATB (human)) of -1.84 log2, a Log2 Fold change (vs control) (PCK2 (human)) of -5.32 log2 and a Log2 Fold change (vs control) (OGDH (human)) of -3.7 log2. The Log2 Fold change (vs control) (ZADH2 (human)) was -3.46 log2, the Log2 Fold change (vs control) (ABHD10 (human)) was -1.53 log2 and the Log2 Fold change (vs control) (PIN1 (human)) was -0.11 log2. For the same substance, the Log2 Fold change (vs control) (GFM1 (human)) was -1.08 log2, the Log2 Fold change (vs control) (VWA8 (human)) was 1.69 log2 and the Log2 Fold change (vs control) (FOXRED1 (human)) was -4.09 log2. The Log2 Fold change (vs control) (MRPL45 (human)) was -6.44 log2, the Log2 Fold change (vs control) (C12orf10 (human)) was -3.75 log2 and the Log2 Fold change (vs control) (OXA1L (human)) was -3 log2. The Log2 Fold change (vs control) (LETM1 (human)) was -0.94 log2, the Log2 Fold change (vs control) (GLRX5 (human)) was -5.21 log2 and the Log2 Fold change (vs control) (PDE12 (human)) was -5.78 log2. The Log2 Fold change (vs control) (PET112 (human)) was -3.03 log2, the Log2 Fold change (vs control) (IARS2 (human)) was -2.38 log2 and the Log2 Fold change (vs control) (ATPAF2 (human)) was -2.58 log2. For the same substance, the Log2 Fold change (vs control) (NME4 (human)) was -1.16 log2, the Log2 Fold change (vs control) (MTHFD1L (human)) was -0.39 log2 and the Log2 Fold change (vs control) (MTRF1 (human)) was -4.25 log2. It also gave a Log2 Fold change (vs control) (DCAKD (human)) of -3.75 log2, a Log2 Fold change (vs control) (ACAD10 (human)) of -4.09 log2 and a Log2 Fold change (vs control) (AIFM1 (human)) of -1.58 log2. The Log2 Fold change (vs control) (HSDL2 (human)) was -0.71 log2, the Log2 Fold change (vs control) (MRPS17 (human)) was -4.25 log2 and the Log2 Fold change (vs control) (EARS2 (human)) was -1.29 log2. The Log2 Fold change (vs control) (COQ6 (human)) was -3.7 log2, the Log2 Fold change (vs control) (MRPS26 (human)) was -6.38 log2 and the Log2 Fold change (vs control) (C7orf55 (human)) was -1.18 log2. For the same substance, the Log2 Fold change (vs control) (NDUFA12 (human)) was -7.55 log2, the Log2 Fold change (vs control) (AK3 (human)) was -1.05 log2 and the Log2 Fold change (vs control) (COQ8A (human)) was -4.74 log2. The Log2 Fold change (vs control) (MRPL10 (human)) was -4.46 log2, the Log2 Fold change (vs control) (HSD17B8 (human)) was -1.26 log2 and the Log2 Fold change (vs control) (PITRM1 (human)) was -4.25 log2. The Log2 Fold change (vs control) (QRSL1 (human)) was -2.9 log2, the Log2 Fold change (vs control) (BCKDHB (human)) was -4.91 log2 and the Log2 Fold change (vs control) (MRPS16 (human)) was -3.81 log2. It also gave a Log2 Fold change (vs control) (C8orf82 (human)) of -1.19 log2, a Log2 Fold change (vs control) (MRPS28 (human)) of -1.24 log2 and a Log2 Fold change (vs control) (NFUl (human)) of -4.32 log2.

— patent publication US20220143024A1, “METHODS OF USING IMIPRIDONES” (Board of Regents, The University of Texas System, priority 2019, published 2022)
